Measurements as given in patent WO2022068891A1 (dated 2022).

How the values were obtained:
[1] = molecular target: T1, Biotinylated PD-1-huIgG1 Fc (Kactus Biosystems) (UniProt Q15116 25-167, limits assumed, biotinylated (site not given)); test: neutralisation ELISA: PD-L1-huIgG1 Fc coated, antibody titrated against biotinylated PD-1-huIgG1 Fc
T1 construct: the whole entry is named

[2] = molecular target: T2, PD-1 Protein, Human, Recombinant (His Tag) (Beijing Yiqiao Shenzhou / Sino Biological) (human, UniProt Q15116 25-167); test: binding ELISA: human PD-1 His tag protein coated at 0.5 ug/ml, antibody in two-fold dilutions from 10 ug/ml
T2 construct: Bought reagent; the whole entry is named
T2 sequence (Q15116 25-167 limits assumed): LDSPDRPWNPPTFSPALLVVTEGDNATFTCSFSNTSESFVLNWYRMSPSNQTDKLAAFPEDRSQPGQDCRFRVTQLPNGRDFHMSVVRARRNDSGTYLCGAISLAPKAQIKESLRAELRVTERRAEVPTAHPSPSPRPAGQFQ

T1 sequence (Q15116 25-167 limits assumed): as above

IC50 [1]: 3.6 µg/mL
EC50 [2]: 0.0172 µg/mL
B1: 6H6 hIgG1 form antibody (antibody, V domains shown)
VH: EVKLVESGGGLVKPGGSLKLSCAASGFTFSSYGMSWVRQTPEKRLEWVATISGGGRYTYYPDSVKGRFTISRDNAKNNLYLQMSSLRSEDTALYYCASIYDGYYFDYWGHGTTLTVSS
VL: DIVITQSPATLSVTPGDSVSLSCRASQSISNNLHWYQKKSHESPRLLIKYASQSISGIPSRFSGSGSGTDFTLSINSVETEDFGMYFCQQSNSWPLTFGAGTKLELK
notes: also called 6H6 antibody; 6H6 huIgG1 antibody
